Data: patent US20170306037A1 (Novartis, published 2017)
Changes are numbered by the printed parent chain. Values belong to the binder of their own block, whether it stands above or below them.

What was measured:
DcR3 = molecular target: T1, DcR3 (human, UniProt O95407); assay: specificity ELISA, bacterial lysate on HisGrab nickel plate
T1 sequence (receptor, looked up): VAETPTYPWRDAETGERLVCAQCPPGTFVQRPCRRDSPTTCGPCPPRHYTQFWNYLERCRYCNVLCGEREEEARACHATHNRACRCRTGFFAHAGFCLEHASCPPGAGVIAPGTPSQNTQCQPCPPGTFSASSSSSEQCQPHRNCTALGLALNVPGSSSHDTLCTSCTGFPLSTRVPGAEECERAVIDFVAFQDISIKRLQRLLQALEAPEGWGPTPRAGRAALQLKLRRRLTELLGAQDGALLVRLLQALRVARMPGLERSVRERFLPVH
Description: (§1) For the specificity ELISA, a crude cell lysate was made from bacteria expressing members of the TNFRSF family. To prevent nonspecific binding to the plate 50 μL of 5% BSA was added per mL of bacterial lysate. […] The plate was then rinsed three times with PBST, then MAB was diluted to 0.5 μg/mL in 10% FBS in PBS and 100 μL was added to each well. The plate was incubated for 1 hour at room temperature and then rinsed three times with PBST. Anti-human kappa antibody (Sigma #A7164) conjugated to HRP was diluted 1:5000 in 1:1 PBST: 10% FBS in PBS and 100 μL added to each well. The plate was incubated for 1 hour at room temperature, and then washed three times with PBST. 100 μL of SureBlue TMB substrate was added to each well and the plate was incubated for about 10 min at room temperature before stopping the reaction with 100 μL /well of 2N H₂SO₄.

NGFR = molecular target: T2, NGFR (human, UniProt P08138); assay: as above
T2 sequence (receptor, looked up): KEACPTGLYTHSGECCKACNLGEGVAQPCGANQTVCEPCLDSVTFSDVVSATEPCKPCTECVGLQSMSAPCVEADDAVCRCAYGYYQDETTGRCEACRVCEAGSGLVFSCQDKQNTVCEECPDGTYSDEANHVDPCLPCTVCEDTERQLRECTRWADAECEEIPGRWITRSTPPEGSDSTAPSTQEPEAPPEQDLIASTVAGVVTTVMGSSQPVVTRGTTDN
Description: as §1

OX40 = molecular target: T3, OX40 (human, UniProt P43489); assay: as above
T3 sequence (receptor, looked up): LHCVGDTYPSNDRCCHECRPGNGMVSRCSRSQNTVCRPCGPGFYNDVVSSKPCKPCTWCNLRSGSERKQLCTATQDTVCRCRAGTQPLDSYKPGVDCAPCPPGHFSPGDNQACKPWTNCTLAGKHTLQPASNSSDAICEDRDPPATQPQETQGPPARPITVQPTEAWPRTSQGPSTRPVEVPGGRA
Description: as §1

CD137 = molecular target: T4, CD137 (human, UniProt Q07011); assay: as above
T4 construct: also called TNFRSF9
Description: as §1

BCMA = molecular target: T5, BCMA (human, UniProt Q02223); assay: as above
T5 sequence (receptor, looked up): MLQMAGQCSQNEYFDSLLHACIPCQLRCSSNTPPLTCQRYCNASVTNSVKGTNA
Description: as §1

OPG = molecular target: T6, OPG (human, UniProt O00300); assay: as above
T6 sequence (receptor, looked up): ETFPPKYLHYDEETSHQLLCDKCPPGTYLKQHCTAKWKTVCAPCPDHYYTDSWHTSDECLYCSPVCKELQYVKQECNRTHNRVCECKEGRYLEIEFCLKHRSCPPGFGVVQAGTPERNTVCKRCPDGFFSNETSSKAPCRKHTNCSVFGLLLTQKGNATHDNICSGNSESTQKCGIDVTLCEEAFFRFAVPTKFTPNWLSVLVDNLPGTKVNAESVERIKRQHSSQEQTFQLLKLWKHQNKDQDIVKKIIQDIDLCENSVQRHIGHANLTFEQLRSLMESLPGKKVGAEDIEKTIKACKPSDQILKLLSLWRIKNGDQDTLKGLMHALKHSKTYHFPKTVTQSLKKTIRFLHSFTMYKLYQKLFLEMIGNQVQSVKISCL
Description: as §1

TNFR3 = TNFR3 (human, UniProt P36941); assay: as above
Description: as §1

[1] = molecular target: cyno GITR (cGITR), form not stated (cynomolgus monkey); assay: Biacore (SPR)
[2] = molecular target: T7, mouse GITR extracellular domain (mouse, UniProt O35714 20-153); assay: ELISA on coated GITR ECD
T7 construct: extracellular domain; also called murine GITR; rodent GITR
T7 sequence (looked up): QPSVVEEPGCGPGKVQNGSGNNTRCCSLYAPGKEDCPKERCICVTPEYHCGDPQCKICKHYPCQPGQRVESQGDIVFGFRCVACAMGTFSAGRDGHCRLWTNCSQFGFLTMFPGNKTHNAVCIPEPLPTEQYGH
Description: (§2) The plate was blocked with a solution of 1% BSA in PBS for one hour at room temperature and then rinsed three times with PBST. The MAB was then diluted to 0.5 μg/mL or 1 μg/mL in PBS and 20 μL was added to each well. The plate was incubated for 1 hour at room temperature and then washed three times with PBST. […] The plate was incubated for 1 hour at room temperature, and then washed six times with PBST. 25 μL of SureBlue TMB (KPL 52-00-02) substrate was added to each well and the plate was incubated for about 10 min at room temperature.

[3] = molecular target: T8, rat GITR extracellular domain (rat, UniProt F7FFS7 65-198); assay: ELISA on coated GITR ECD
T8 construct: also called rodent GITR
T8 sequence: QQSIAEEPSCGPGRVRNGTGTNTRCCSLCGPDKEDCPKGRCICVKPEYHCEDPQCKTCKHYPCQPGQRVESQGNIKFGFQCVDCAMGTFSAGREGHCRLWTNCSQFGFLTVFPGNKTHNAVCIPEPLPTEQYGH
Description: as §2

[4] = molecular target: T9, human GITR (hGITR), form not stated (human, UniProt Q9Y5U5 26-162, limits assumed); assay: Biacore (SPR), IgG
T9 construct: the construct is not described
T9 sequence: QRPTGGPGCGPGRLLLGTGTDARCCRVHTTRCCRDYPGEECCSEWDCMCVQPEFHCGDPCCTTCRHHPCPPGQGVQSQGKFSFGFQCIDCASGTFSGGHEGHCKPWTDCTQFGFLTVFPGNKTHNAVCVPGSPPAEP

[5] = molecular target: cyno GITR (cGITR), form not stated (cynomolgus monkey); assay: Biacore (SPR), IgG

TNFR3, sequence (P36941 31-227 limits assumed): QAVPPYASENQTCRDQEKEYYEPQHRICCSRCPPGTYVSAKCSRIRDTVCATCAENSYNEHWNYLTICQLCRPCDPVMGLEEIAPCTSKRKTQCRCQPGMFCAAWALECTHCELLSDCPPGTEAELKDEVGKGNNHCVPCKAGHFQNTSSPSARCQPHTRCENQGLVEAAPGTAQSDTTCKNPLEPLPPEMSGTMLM

- fold lower binding affinity for cyno GITR than for human GITR [1]: 2 to 3 fold
- Kd [4]: 0.684 nM
- Kd [5]: 1.78 nM
B1: MAB4 (IgG1 kappa) (antibody, V domains shown)
VH: EVQLVESGGGLVQSGGSLRLSCAASGFSLSSYGVDWVRQAPGKGLEWVGVIWGGGGTYYASSLMGRFTISRDNSKNTLYLQMNSLRAEDTAVYYCAKHAYGHDGGFAMDYWGQGTLVTVSS
VL: EIVMTQSPATLSVSPGERATLSCRASESVSSNVAWYQQRPGQAPRLLIYGASNRATGIPARFSGSGSGTDFTLTISRLEPEDFAVYYCGQSYSYPFTFGQGTKLEIKR
- binding result (DcR3): no binding (tested: not on the sheet; paragraph 335: 0.5 µg/mL)
- binding result (NGFR): no binding (tested: not on the sheet; paragraph 335: 0.5 µg/mL)
- binding result (OX40): no binding (tested: not on the sheet; paragraph 335: 0.5 µg/mL)
- binding result (CD137): no binding (tested: not on the sheet; paragraph 335: 0.5 µg/mL)
- binding result (BCMA): no binding (tested: not on the sheet; paragraph 335: 0.5 µg/mL)
- binding result (OPG): no binding (tested: not on the sheet; paragraph 335: 0.5 µg/mL)
- binding result (TNFR3): no binding (tested: not on the sheet; paragraph 335: 0.5 µg/mL)
- binding result [2]: no binding (tested: not on the sheet; paragraph 336: 0.5 or 1 µg/mL)
- binding result [3]: no binding (tested: not on the sheet; paragraph 336: 0.5 or 1 µg/mL)

- fold lower binding affinity for cyno GITR than for human GITR [1]: 2 to 3 fold
- Kd [4]: 0.973 nM
- Kd [5]: 1.87 nM
B2: MAB5 (IgG1 kappa) (antibody, V domains shown)
VH: B1 VH with V48L, A60T
VL: B1 VL
notes: also called MABS (misprint of MAB5)
- binding result (DcR3): no binding (tested: not on the sheet; paragraph 335: 0.5 µg/mL)
- binding result (NGFR): no binding (tested: not on the sheet; paragraph 335: 0.5 µg/mL)
- binding result (OX40): no binding (tested: not on the sheet; paragraph 335: 0.5 µg/mL)
- binding result (CD137): no binding (tested: not on the sheet; paragraph 335: 0.5 µg/mL)
- binding result (BCMA): no binding (tested: not on the sheet; paragraph 335: 0.5 µg/mL)
- binding result (OPG): no binding (tested: not on the sheet; paragraph 335: 0.5 µg/mL)
- binding result (TNFR3): no binding (tested: not on the sheet; paragraph 335: 0.5 µg/mL)
- binding result [2]: no binding (tested: not on the sheet; paragraph 336: 0.5 or 1 µg/mL)
- binding result [3]: no binding (tested: not on the sheet; paragraph 336: 0.5 or 1 µg/mL)
